Experimental data published in article PMC6539346, “Molecular and Structural Basis of the Proteasome α Subunit Assembly Mechanism Mediated by the Proteasome-Assembling Chaperone PAC3-PAC4 Heterodimer” (International Journal of Molecular Sciences, 2019).

Biological target: the molecule itself
Experiment: crystal structure; non-tagged PAC3 homodimer, 8.0 mg/mL in 20 mM Tris-HCl pH 7.5, 150 mM NaCl; crystals from 30% PEG2000 monomethyl ether, 0.1 M potassium thiocyanate, 20 °C; space group P3(1)21, 0.96 Å

B1: human PAC3 homodimer, non-tagged (natural protein)
chain: MEDTPLVISKQKTEVVCGVPTQVVCTAFSSHILVVVTQFGKMGTLVSLEPSSVASDVSKPVLTTKVLLGQDEPLIHVFAKNLVAFVSQEAGNRAVLLAVAVKDKSMEGLKALREVIRVCQVW
notes: human proteasome-assembling chaperone PAC3; source: E. coli BL21-CodonPlus (DE3)-RIL, purified
binding result: binds
